From the supplement of paper PMC10567573

B1: LYSMD4 (parent)
chain: LLQRELAQEDSLNKLALQYGCKVA

Variants of: B1
Experiment: protein stability index of a GFP-peptide fusion (GPS, HEK-293T) (PSI 1-6); higher = more stable
Conditions: c terminus: a fixed tail appended
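Also: lentivirally expressed fusions sorted by FACS into six bins by GFP to DsRed ratio, PSI derived from sequencing read proportions per bin multiplied by bin number.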

Compared with LLQSELAQEDSLNKLALQYGCKVA [R4S], LLQLELAQEDSLNKLALQYGCKVA [R4L] is higher in protein stability index: 1.25 for the first, 2.03 for the second.

First: LLQVELAQEDSLNKLALQYGCKVA [R4V]
Second: LLQTELAQEDSLNKLALQYGCKVA [R4T]
The protein stability index of the first is higher: 3.51 for the first, 1.9 for the second.

Compared with LLTRELAQEDSLNKLALQYGCKVA [Q3T], LLLRELAQEDSLNKLALQYGCKVA [Q3L] is higher in protein stability index: 1.27 for the first, 1.59 for the second.

First: LLYRELAQEDSLNKLALQYGCKVA [Q3Y]
Second: LLGRELAQEDSLNKLALQYGCKVA [Q3G]
The protein stability index of the first is lower: 1.3 for the first, 2.85 for the second.

Compared with LLHRELAQEDSLNKLALQYGCKVA [Q3H], LLIRELAQEDSLNKLALQYGCKVA [Q3I] is lower in protein stability index: 2.24 for the first, 1.46 for the second.

Going from LLNRELAQEDSLNKLALQYGCKVA [Q3N] to LLSRELAQEDSLNKLALQYGCKVA [Q3S], the protein stability index rises from 2.3 to 3.41.

Going from LLMRELAQEDSLNKLALQYGCKVA [Q3M] to LLPRELAQEDSLNKLALQYGCKVA [Q3P], the protein stability index falls from 1.65 to 1.41.

Going from LHQRELAQEDSLNKLALQYGCKVA [L2H] to LVQRELAQEDSLNKLALQYGCKVA [L2V], the protein stability index rises from 1.02 to 2.29.

Going from LKQRELAQEDSLNKLALQYGCKVA [L2K] to LYQRELAQEDSLNKLALQYGCKVA [L2Y], the protein stability index falls from 2.6 to 1.61.

Compared with LTQRELAQEDSLNKLALQYGCKVA [L2T], LEQRELAQEDSLNKLALQYGCKVA [L2E] is higher in protein stability index: 1.91 for the first, 2.92 for the second.

First: LAQRELAQEDSLNKLALQYGCKVA [L2A]
Second: LNQRELAQEDSLNKLALQYGCKVA [L2N]
The protein stability index of the first is higher: 2.26 for the first, 2.04 for the second.

First: LWQRELAQEDSLNKLALQYGCKVA [L2W]
Second: LMQRELAQEDSLNKLALQYGCKVA [L2M]
The protein stability index of the first is lower: 1.5 for the first, 2.27 for the second.

Going from LDQRELAQEDSLNKLALQYGCKVA [L2D] to LQQRELAQEDSLNKLALQYGCKVA [L2Q], the protein stability index falls from 2.63 to 1.86.

Going from LIQRELAQEDSLNKLALQYGCKVA [L2I] to LCQRELAQEDSLNKLALQYGCKVA [L2C], the protein stability index falls from 2.18 to 1.67.

First: LFQRELAQEDSLNKLALQYGCKVA [L2F]
Second: LSQRELAQEDSLNKLALQYGCKVA [L2S]
The protein stability index of the first is higher: 2.25 for the first, 2.06 for the second.

Going from LPQRELAQEDSLNKLALQYGCKVA [L2P] to HLQRELAQEDSLNKLALQYGCKVA [L1H], the protein stability index falls from 2.31 to 1.91.

First: YLQRELAQEDSLNKLALQYGCKVA [L1Y]
Second: ALQRELAQEDSLNKLALQYGCKVA [L1A]
The protein stability index of the first is higher: 2.5 for the first, 1.96 for the second.

Going from PLQRELAQEDSLNKLALQYGCKVA [L1P] to KLQRELAQEDSLNKLALQYGCKVA [L1K], the protein stability index rises from 1.51 to 1.99.

Compared with FLQRELAQEDSLNKLALQYGCKVA [L1F], RLQRELAQEDSLNKLALQYGCKVA [L1R] is higher in protein stability index: 1.55 for the first, 1.6 for the second.

Compared with ILQRELAQEDSLNKLALQYGCKVA [L1I], TLQRELAQEDSLNKLALQYGCKVA [L1T] is lower in protein stability index: 2.28 for the first, 1.8 for the second.

Compared with NLQRELAQEDSLNKLALQYGCKVA [L1N], DLQRELAQEDSLNKLALQYGCKVA [L1D] is lower in protein stability index: 2.09 for the first, 1.96 for the second.

First: ELQRELAQEDSLNKLALQYGCKVA [L1E]
Second: GLQRELAQEDSLNKLALQYGCKVA [L1G]
The protein stability index of the first is lower: 1.5 for the first, 1.52 for the second.

Going from QLQRELAQEDSLNKLALQYGCKVA [L1Q] to WLQRELAQEDSLNKLALQYGCKVA [L1W], the protein stability index rises from 1.32 to 2.31.

Compared with LLQREDAQEDSLNKLALQYGCKVA [L6D], LLQRERAQEDSLNKLALQYGCKVA [L6R] is lower in protein stability index: 2.5 for the first, 1.61 for the second.

Going from LLQREEAQEDSLNKLALQYGCKVA [L6E] to LLQREHAQEDSLNKLALQYGCKVA [L6H], the protein stability index falls from 3 to 2.39.

Compared with LLQREQAQEDSLNKLALQYGCKVA [L6Q], LLQREKAQEDSLNKLALQYGCKVA [L6K] is lower in protein stability index: 2.18 for the first, 2.11 for the second.

Going from LLQREGAQEDSLNKLALQYGCKVA [L6G] to LLQREIAQEDSLNKLALQYGCKVA [L6I], the protein stability index falls from 1.95 to 1.52.

Going from LLQREYAQEDSLNKLALQYGCKVA [L6Y] to LLQRECAQEDSLNKLALQYGCKVA [L6C], the protein stability index rises from 1.92 to 2.02.

Compared with LLQREAAQEDSLNKLALQYGCKVA [L6A], LLQREWAQEDSLNKLALQYGCKVA [L6W] is lower in protein stability index: 2.06 for the first, 1.87 for the second.

Going from LLQREMAQEDSLNKLALQYGCKVA [L6M] to LLQRENAQEDSLNKLALQYGCKVA [L6N], the protein stability index rises from 1.37 to 2.24.

First: LLQREVAQEDSLNKLALQYGCKVA [L6V]
Second: LLQRETAQEDSLNKLALQYGCKVA [L6T]
The protein stability index of the first is lower: 1.62 for the first, 1.92 for the second.

First: LLQRESAQEDSLNKLALQYGCKVA [L6S]
Second: LLQRFLAQEDSLNKLALQYGCKVA [E5F]
The protein stability index of the first is lower: 1.67 for the first, 3.86 for the second.

Compared with LLQRALAQEDSLNKLALQYGCKVA [E5A], LLQRTLAQEDSLNKLALQYGCKVA [E5T] is lower in protein stability index: 3.05 for the first, 2.55 for the second.

First: LLQRSLAQEDSLNKLALQYGCKVA [E5S]
Second: LLQRRLAQEDSLNKLALQYGCKVA [E5R]
The protein stability index of the first is lower: 1.87 for the first, 2.05 for the second.

Compared with LLQRNLAQEDSLNKLALQYGCKVA [E5N], LLQRVLAQEDSLNKLALQYGCKVA [E5V] is higher in protein stability index: 1.71 for the first, 2.88 for the second.

First: LLQRHLAQEDSLNKLALQYGCKVA [E5H]
Second: LLQRKLAQEDSLNKLALQYGCKVA [E5K]
The protein stability index of the first is higher: 1.91 for the first, 1.76 for the second.

Compared with LLQRYLAQEDSLNKLALQYGCKVA [E5Y], LLQRQLAQEDSLNKLALQYGCKVA [E5Q] is lower in protein stability index: 2.21 for the first, 1 for the second.

First: LLQRPLAQEDSLNKLALQYGCKVA [E5P]
Second: LLQRDLAQEDSLNKLALQYGCKVA [E5D]
The protein stability index of the first is higher: 1.99 for the first, 1.44 for the second.

First: LLQRELAQDDSLNKLALQYGCKVA [E9D]
Second: LLQRELAQADSLNKLALQYGCKVA [E9A]
The protein stability index of the first is higher: 2.68 for the first, 1.53 for the second.

Going from LLQRELAQCDSLNKLALQYGCKVA [E9C] to LLQRELAGEDSLNKLALQYGCKVA [Q8G], the protein stability index falls from 1.53 to 1.42.

Compared with LLQRELALEDSLNKLALQYGCKVA [Q8L], LLQRELAREDSLNKLALQYGCKVA [Q8R] is lower in protein stability index: 1.58 for the first, 1.47 for the second.

Going from LLQRELAFEDSLNKLALQYGCKVA [Q8F] to LLQRELAHEDSLNKLALQYGCKVA [Q8H], the protein stability index falls from 1.59 to 1.54.

Compared with LLQRELAAEDSLNKLALQYGCKVA [Q8A], LLQRELANEDSLNKLALQYGCKVA [Q8N] is higher in protein stability index: 1.73 for the first, 3.38 for the second.

Compared with LLQRELASEDSLNKLALQYGCKVA [Q8S], LLQRELAPEDSLNKLALQYGCKVA [Q8P] is lower in protein stability index: 2.25 for the first, 1.48 for the second.

First: LLQRELAMEDSLNKLALQYGCKVA [Q8M]
Second: LLQRELAIEDSLNKLALQYGCKVA [Q8I]
The protein stability index of the first is higher: 1.92 for the first, 1.89 for the second.

Compared with LLQRELAEEDSLNKLALQYGCKVA [Q8E], LLQRELAKEDSLNKLALQYGCKVA [Q8K] is lower in protein stability index: 1.84 for the first, 1.66 for the second.

Going from LLQRELAYEDSLNKLALQYGCKVA [Q8Y] to LLQRELADEDSLNKLALQYGCKVA [Q8D], the protein stability index rises from 2.21 to 4.68.

Variant LLQRELATEDSLNKLALQYGCKVA [Q8T] has a protein stability index of 1.45.
